Experimental findings from FireProtDB are described below.

In general, Tm refers to the temperature at which the thermal transition is half complete.

For this data set the following is noted: whole UniProt chain shown.
Setting [1] is: Bacillus amyloliquefaciens, pH 5.8, Thermal, DSC, acetate 10 mM, reversible: yes.
Where [2] appears, read: Bacillus amyloliquefaciens, pH 6.2, Thermal, DSC, PIPES 0.01 M, NaCl 0.05 M, reversible: yes(54%).
The mark [3] stands for this setting: Bacillus amyloliquefaciens, pH 6.3, 25 °C, GdnSCN, CD, Sodium acetate 50 mM, reversible: yes.
[4] abbreviates: Bacillus amyloliquefaciens, pH 6.3, 25 °C, Thermal, Fluorescence, MES 50 mM, KCl, reversible: yes.
The mark [5] stands for this setting: Bacillus amyloliquefaciens, pH 6.3, 25 °C, Urea, CD, MES 50 mM, reversible: yes.
Setting [6] is: Bacillus amyloliquefaciens, pH 6.3, 25 °C, Urea, Fluorescence, MES 19.3 mM, reversible: yes.
Setting [7] is: Bacillus amyloliquefaciens, pH 6.3, 25 °C, Urea, Fluorescence, MES 50 mM, reversible: yes.
[8] abbreviates: Bacillus amyloliquefaciens, pH 6.3, Thermal, DSC, MES 50 mM, reversible: yes.
The mark [9] stands for this setting: Bacillus amyloliquefaciens, pH 8, 25 °C, Urea, CD, Tris-HCl 25 mM.
[10] abbreviates: Armoracia rusticana, pH 7.4, 21 °C, GdnHCl, CD, Sodium phosphate 20 mM, CaCl2 1 mM, reversible: yes.
[11] abbreviates: Armoracia rusticana, pH 7.4, 21 °C, GdnHCl, Fluorescence, Sodium phosphate 20 mM, CaCl2 1 mM, reversible: yes.

B1: Ribonuclease wild type, P00648 (protein)
chain: MMKMEGIALKKRLSWISVCLLVLVSAAGMLFSTAAKTETSSHKAHTEAQVINTFDGVADYLQTYHKLPDNYITKSEAQALGWVASKGNLADVAPGKSIGGDIFSNREGKLPGKSGRTWREADINYTSGFRNSDRILYSSDWLIYKTTDHYQTFTKIR
B1: the Tm under setting [1] stood at 54.3 °C, the Tm under setting [2] was found to be 54.8 °C and the Tm under setting [8] came out at 51.5 °C. Further, the “heat capacity change of unfolding” value was 1.37 kcal/mol/K under setting [1] and 1.88 kcal/mol/K under setting [4]. Also, the “unfolding enthalpy (calorimetric)” value came to 126 kcal/mol under setting [1], 128 kcal/mol under setting [2] and 127 kcal/mol under setting [8]. The “unfolding enthalpy (van 't Hoff)” value is, setting by setting: under setting [1], 124 kcal/mol; under setting [4], 84.5 kcal/mol; under setting [8], 126 kcal/mol. For the same protein, the unfolding free energy by setting is: (Bacillus amyloliquefaciens, pH 6, 25 °C, Thermal, CD, MES 50 mM, reversible: yes) 10 kcal/mol; under setting [3], 11 kcal/mol; (Bacillus amyloliquefaciens, pH 6.3, 25 °C, Thermal, DSC, MES 50 mM, reversible: yes) 8.52 kcal/mol; under setting [4], 10.2 kcal/mol; (Bacillus amyloliquefaciens, pH 6.3, 25 °C, Thermal, Fluorescence, MES 50 mM) 10.2 kcal/mol; under setting [5], 9.18 kcal/mol. Also, the unfolding free energy worked out at 10.5 kcal/mol under setting [6]; 8.79 kcal/mol under setting [7]; 8.9 kcal/mol (Bacillus amyloliquefaciens, pH 6.3, 25 °C, Urea, Fluorescence, MES 1 M); 7.58 kcal/mol under setting [9]. In addition, the denaturant m value reads like this: under setting [3], 14.3 kcal/mol/M; under setting [5], 2.02 kcal/mol/M; under setting [7], 1.92 kcal/mol/M; under setting [9], 1.84 kcal/mol/M. Besides, the “denaturant midpoint (higher = more stable)” value (from here on “denaturant midpoint”) under setting [3] amounted to 0.77 M, the “denaturant midpoint” value under setting [5] came to 4.53 M, the “denaturant midpoint” value under setting [6] was 2.27 M and the “denaturant midpoint” value under setting [7] was determined as 4.58 M.

B2: wild type, Q7M1T4 (protein)
chain: ASQTITVGPWGGPGGNGWDDGSYTGIRQIELSYKEAIGSFSVIYDLNGEPFSGPKHTSKLPYKNVKIELRFPDEFLESVSGYTAPFSALATPTPVVRSLTFKTNKGRTFGPYGDEEGTYFNLPIENGLIVGFKGRTGDLLDAIGVHMAL
Regarding B2, the Tm (Artocarpus integer, pH 7.4, Thermal, CD, phosphate buffered saline (PBS) 10 mM, NaCl 150 mM, reversible: no) is 65.8 °C and the Tm (Artocarpus integer, pH 7.4, Thermal, Fluorescence, phosphate buffered saline (PBS) 10 mM, NaCl 150 mM, reversible: no) was 63.9 °C.

B3: Peroxidase C2 wild type, P17179 (protein)
chain: MHSSSSLIKLGFLLLLLNVSLSHAQLSPSFYDKTCPQVFDIATNTIKTALRSDPRIAASILRLHFHDCFVNGCDASILLDNTTSFRTEKDAFGNARSARGFDVIDTMKAAVEKACPKTVSCADLLAIAAQKSVVLAGGPSWKVPSGRRDSLRGFMDLANDNLPGPSSTLQVLKDKFRNVGLDRPSDLVALSGGHTFGKNQCQFIMDRLYNFSNSGKPDPTLDKSYLSTLRKQCPRNGNLSVLVDFDLRTPTIFDNKYYVNLKENKGLIQSDQELFSSPDASDTIPLVRAYADGQGKFFDAFVEAMIRMGNLSPSTGKQGEIRLNCRVVNSKPKIMDVVDTNDFASSI
Turning to B3, the Tm (Armoracia rusticana, pH 7, Thermal, Fluorescence, Unknown, reversible: yes) was 74 °C. Under setting [10], the denaturant m value turned out to be 1.8 kcal/mol/M and the unfolding free energy came to 1.82 kcal/mol. Under setting [11], the denaturant m value stood at 0.3 kcal/mol/M and the unfolding free energy came out at 2.2 kcal/mol.
